Assay results reported in patent US20220136002A1 (JACKSON LABORATORY, published 2022).

Target: T1, mouse FLT3 receptor (mouse, UniProt Q00342 28-1000)
T1 construct: whole, on cells; Endogenous receptor of the NSG host mouse, knocked out in the NSG Flt3null-Tg(Hu-FLT3L) line; also called CD135
T1 sequence (looked up): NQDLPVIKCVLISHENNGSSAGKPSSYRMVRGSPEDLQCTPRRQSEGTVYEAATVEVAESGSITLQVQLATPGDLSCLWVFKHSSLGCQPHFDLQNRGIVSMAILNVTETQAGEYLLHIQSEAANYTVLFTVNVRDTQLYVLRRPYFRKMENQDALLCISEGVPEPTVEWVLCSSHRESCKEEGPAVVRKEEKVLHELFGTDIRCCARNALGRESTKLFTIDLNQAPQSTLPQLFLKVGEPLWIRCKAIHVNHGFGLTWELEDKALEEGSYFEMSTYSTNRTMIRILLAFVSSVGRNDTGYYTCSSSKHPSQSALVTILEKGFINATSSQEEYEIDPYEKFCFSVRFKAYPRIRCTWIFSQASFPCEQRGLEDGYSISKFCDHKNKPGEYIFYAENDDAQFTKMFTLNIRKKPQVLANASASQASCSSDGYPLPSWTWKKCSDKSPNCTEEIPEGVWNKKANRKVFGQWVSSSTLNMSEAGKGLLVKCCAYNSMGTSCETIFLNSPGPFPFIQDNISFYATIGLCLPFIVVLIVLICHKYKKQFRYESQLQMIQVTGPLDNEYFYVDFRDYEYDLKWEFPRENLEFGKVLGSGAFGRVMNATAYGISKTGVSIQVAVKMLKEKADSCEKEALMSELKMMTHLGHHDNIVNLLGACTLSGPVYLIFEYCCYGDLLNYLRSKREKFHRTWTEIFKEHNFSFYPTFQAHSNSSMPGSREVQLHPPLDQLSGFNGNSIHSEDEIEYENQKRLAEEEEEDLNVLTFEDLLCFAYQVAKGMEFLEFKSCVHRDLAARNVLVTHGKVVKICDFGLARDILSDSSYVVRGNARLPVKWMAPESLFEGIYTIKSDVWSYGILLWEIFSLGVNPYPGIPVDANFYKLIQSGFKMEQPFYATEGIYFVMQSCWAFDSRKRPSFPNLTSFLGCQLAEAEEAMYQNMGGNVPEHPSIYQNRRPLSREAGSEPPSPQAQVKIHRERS
Experiment: no direct binding assay; inferred from in vivo mouse genetics (human FLT3L transgenic NSG mice with and without knock-out of mouse Flt3)

B1: human FLT3 ligand (FLT3L) (ligand, UniProt P49771 27-184, looked up)
chain: TQDCSFQHSPISSDFAVKIRELSDYLLQDYPVTVASNLQDEELCGGLWRLVLAQRWMERLKTVAGSKMQGLLERVNTEIHFVTKCAFQPPPSCLRFVQTNISRLLQETSEQLVALKPWITRQNFSRCLELQCQPDSSTLPPPWSPRPLEATAPTAPQP
notes: Expressed in vivo from a 13.8 kb genomic BAC fragment and circulating in mouse serum; also called Hu-FLT3L
Q: Does B1 bind?
A: Result: binds
